# Reference: patent US20230069418A1 (XIAMEN INNODX BIOTECH, published 2023)
# T1: polypeptide S29 (HBcAg-aa141-aa154) (hepatitis B virus)
# T1 peptide: STLPETTVVRRRGR
# Biological target: T1, polypeptide S29 (HBcAg-aa141-aa154)
# Experiment: indirect ELISA on coated peptide, antibody 1 ug/mL; positive if measured/background > 5
binder,measurement,value
"2A7 monoclonal antibody (antibody, V domains shown, also called HBc-2A7; 2A7-21) VH: QVQLQQPGAELVKPGASVKLSCKASGYTFTRYWMHWVMQRPGQDLEWIGEINPINGRTNYNEKFRRKATLTVDKSSSTVYIQFSSLTSEDSAVYFCTREGYRNDYYYAMDFWGRGTSVTVSS VL: DIQMTQTSSSLSASPGDRVTISCRASQGINNYLNWYKQKTDGTFKLLIYYTSYLHSGVPSRFSGRGSGTDYSLTISNLEPEDVATYYCQQYGKLPWTFGGGTKLEIK",binding result,binds
